From FireProtDB (doi:10.1093/protein/7.6.777) come the findings set out here.

For orientation: Tm means the temperature at which the thermal transition is half complete.

Sequences and labels used below:
B1: Subtilisin-chymotrypsin inhibitor-2A, P01053 (parent)
chain: MSSVEKKPEGVNTGAGDRHNLKTEWPELVGKSVEEAKKVILQDKPEAQIIVLPVGTIVTMEYRIDRVRLFVDKLDNIAQVPRVG

This data set covers variants of B1. The note with it: Hordeum vulgare, structure 2CI2, whole UniProt chain shown; for Tm / unfolding enthalpy (calorimetric): Thermal, DSC; for denaturant m value / denaturant midpoint (higher = more stable) / unfolding free energy: pH 6.25, 25 °C, GdnHCl, Fluorescence, MES 50 mM.

For S32G E34A E35A, the denaturant m value was found to be 2.15 kcal/mol/M, the “denaturant midpoint (higher = more stable)” value (shortened to “denaturant midpoint”) was 3.16 M and the unfolding free energy is 28.4 kJ/mol. For the setting “pH 3, glycine-HCl 10 mM”, the Tm was determined as 56.5 °C and the “unfolding enthalpy (calorimetric)” value was 230 kJ/mol.
Turning to S32A E34A E35A, the denaturant m value was 2.18 kcal/mol/M, the “denaturant midpoint” value was determined as 3.14 M and the unfolding free energy stood at 28.7 kJ/mol. Besides, for the setting “pH 3, glycine-HCl 10 mM”, the melting temperature (Tm) stood at 56.2 °C and the “unfolding enthalpy (calorimetric)” value was determined as 226 kJ/mol.
Take E35Q: the denaturant m value is 1.84 kcal/mol/M, the “denaturant midpoint” value was 3.76 M and the unfolding free energy is 29 kJ/mol.
E35N: the denaturant m value amounted to 2.18 kcal/mol/M, the “denaturant midpoint” value was 3.45 M and the unfolding free energy amounted to 31.5 kJ/mol.
On the same counts, the results for E35D are 2.2 kcal/mol/M, 3.62 M and 33.4 kJ/mol.
Turning to S32A, the denaturant m value worked out at 1.86 kcal/mol/M, the “denaturant midpoint” value stood at 3.54 M and the unfolding free energy is 27.5 kJ/mol. Also, for the setting “pH 3, glycine-HCl 10 mM”, the melting temperature (Tm) was found to be 58 °C and the “unfolding enthalpy (calorimetric)” value worked out at 222 kJ/mol.
Turning to S32G, the denaturant m value was determined as 2.1 kcal/mol/M, the “denaturant midpoint” value is 3.59 M and the unfolding free energy turned out to be 31.5 kJ/mol. Moreover, under “pH 3.5, formate 10 mM”, the melting temperature (Tm) worked out at 69 °C and the “unfolding enthalpy (calorimetric)” value worked out at 268 kJ/mol.
Regarding E34A E35A, the denaturant m value is 2.11 kcal/mol/M, the “denaturant midpoint” value was 3.61 M and the unfolding free energy was 31.8 kJ/mol. For the same variant, under “pH 3, glycine-HCl 10 mM”, the melting temperature (Tm) turned out to be 60.1 °C and the “unfolding enthalpy (calorimetric)” value was found to be 243 kJ/mol.
In the case of E34D, the denaturant m value amounted to 1.83 kcal/mol/M, the “denaturant midpoint” value amounted to 3.73 M and the unfolding free energy was 28.6 kJ/mol.
As for E34N, the denaturant m value stood at 2.01 kcal/mol/M, the “denaturant midpoint” value is 3.64 M and the unfolding free energy came to 30.5 kJ/mol.
As to E34Q, the denaturant m value amounted to 1.87 kcal/mol/M, the “denaturant midpoint” value is 3.85 M and the unfolding free energy is 29.4 kJ/mol.
